± gives the standard deviation of the averaged measurements.
test system: ATP; experiment: switch fluorescence ratio, 500 uM ATP over buffer (Cy3 cluster intensity, sum of 5 cycles each) (fold (ratio)); higher = stronger signal-on switching upon ATP binding; sequences stand for … in TCGTCGGCAGCGTCAGATGTGTATAAGAGACAGTTTTTTTTTTTTTTTTTTTTTTTTT…TC; details: aptamer strand: ATP DNA aptamer (quencher-CACCTGGGGGAGTATTGCGGAGGAAGG + anchor), 100 nM annealed; ATP concentration: 500 uM
How it was run: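 Clusters with intensities outside 100-1000 RFU were excluded. The remaining Cy3-labelled switching-strand clusters on a modified Illumina MiSeq flow-cell had been annealed to 100 nM quencher-labelled ATP aptamer and imaged in selection buffer, then after 15 min with 500 uM ATP at 22 °C, for five cycles separated by NaOH stripping and re-annealing. The fluorescence ratio, averaged per switch-domain sequence, is each cluster's summed target-cycle Cy3 intensity over its summed buffer-cycle Cy3 intensity.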
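Further: ATP exposure 15 min at 22 °C before imaging.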

In order of rising switch fluorescence ratio:
1. TTGGCCGGAT  0.9532 ± 0.0042
2. TTGATCTTGA  0.955 ± 0.085
3. TTGGTGTCTT  0.959 ± 0.011
4. TTGCGTAAAA  0.961 ± 0.047
5. TTGGGCTGGA  0.961 ± 0.054
6. TTGGAGAGTG  0.963 ± 0.021
7. TTGGGTATTG  0.966 ± 0.034
8. TTGGGCGGGA  0.968 ± 0.099
9. TTGGTATGTG  0.968 ± 0.017
10. TTGCTAGTTA  0.971 ± 0.037
11. TTGGTTATCG  0.97068 ± 0.00069
12. TTGCATGCCG  0.972 ± 0.036
13. TTGCCTAATG  0.972 ± 0.035
14. TTGCTGGGG  0.972 ± 0.037
15. TTGGATTTCA  0.972 ± 0.045
16. TTGGATGAGG  0.973 ± 0.048
17. TTGGTAGTGC  0.973 ± 0.015
18. TTGGGTCTTC  0.9736 ± 0.0014
19. TTGCGGGGTA  0.978 ± 0.013
20. TTGGTGGCGG  0.978 ± 0.028
21. TTGCTTCTAG  0.979 ± 0.043
22. TTGGGTTAGG  0.979 ± 0.021
23. TTGGGTTATT  0.979 ± 0.029
24. TTGGATCCGG  0.98 ± 0.039
25. TTGGGGACAT  0.98 ± 0.043
26. TTGTAGGAGG  0.9811 ± 0.0032
27. TTGGGCGGCG  0.982 ± 0.074
28. TTGGGCTCAG  0.982 ± 0.013
29. TTGGGGGATC  0.982 ± 0.015
30. TTGATGGCTA  0.983 ± 0.021
31. TTGGGTTAAG  0.983 ± 0.015
32. TTGGTTTAGG  0.983 ± 0.022
33. TTGCGAGGTC  0.985 ± 0.037
34. TTGGGTTGTT  0.986 ± 0.033
35. TTGGTTAGGG  0.986 ± 0.027
36. TTGCTTTATT  0.987 ± 0.016
37. TTGGCGTTGG  0.987 ± 0.026
38. TTGGGGGGTA  0.987 ± 0.028
39. TTGATTTTGG  0.988 ± 0.026
40. TTGGAAAAGT  0.988 ± 0.036
41. TTGGTGGGTA  0.988 ± 0.013
42. TTGTAATGAT  0.988 ± 0.027
43. TTGATATGAG  0.989 ± 0.048
44. TTGGAATGGA  0.989 ± 0.029
45. TTGGAATTCC  0.989 ± 0.05
46. TTGGGATTGT  0.989 ± 0.014
47. TTGGGGAGAT  0.989 ± 0.014
48. TTGATTATCC  0.99 ± 0.019
49. TTGGTGGTTC  0.99 ± 0.037
50. TTGGCTTAGT  0.991 ± 0.034
51. TTGCTATTCG  0.992 ± 0.05
52. TTGGAGGGTT  0.992 ± 0.017
53. TTGGGGTGCT  0.992 ± 0.035
54. TTGATTTTGC  0.993 ± 0.013
55. TTGCAGTTGT  0.993 ± 0.041
56. TTGCGAGAGA  0.993 ± 0.035
57. TTGGTGGGCA  0.993 ± 0.038
58. TTGGAGGCGA  0.994 ± 0.062
59. TTGGGAGTGT  0.994 ± 0.031
60. TTGGGCAGCA  0.99411 ± 0.00084
61. TTGGTTGAGA  0.9939 ± 0.0071
62. TTGTAGGATA  0.994 ± 0.012
63. TTGGCGCCTG  0.9947 ± 0.0075
64. TTGGTAGGGT  0.995 ± 0.031
65. TTGGGTTCCG  0.996 ± 0.057
66. TTGATGTGGT  0.997 ± 0.084
67. TTGCGAATGT  0.997 ± 0.038
68. TTGGATATTC  0.997 ± 0.033
69. TTGGGCTTGG  0.997 ± 0.033
70. TTGGGGGTGC  0.997 ± 0.052
71. TTGGGTTTGT  0.997 ± 0.017
72. TTGCCTTTTT  0.998 ± 0.028
73. TTGGGGCTTG  0.998 ± 0.012
74. TTGATTATTG  0.999 ± 0.032
75. TTGCAGATGG  0.999 ± 0.057
76. TTGCTTGTAT  0.9992 ± 0.0098
77. TTGGGGTCGG  0.999 ± 0.037
78. TTGGTGGTCC  0.999 ± 0.012
79. TTGATCTAAT  1 ± 0.011
80. TTGCGGTGTG  1 ± 0.024
81. TTGCGTGGGG  1.005 ± 0.0065
82. TTGCTATTTT  1 ± 0.028
83. TTGGAAGTGC  1 ± 0.056
84. TTGGATGCGG  1.0022 ± 0.00011
85. TTGGATGTAA  1 ± 0.036
86. TTGGCCGATG  1.001 ± 0.0098
87. TTGGGAAAGG  1.002 ± 0.0053
88. TTGGGACCGT  1 ± 0.0015
89. TTGGGAGGCT  1 ± 0.044
90. TTGGGCCGGT  1 ± 0.037
91. TTGGGCGTTT  1 ± 0.043
92. TTGGGCTACG  1.002 ± 0.0048
93. TTGGGGGAAC  1 ± 0.014
94. TTGGGGGATT  1 ± 0.022
95. TTGGGTTATG  1 ± 0.013
96. TTGGTCGCGT  1.003 ± 0.0019
97. TTGGTTCGCC  1.003 ± 0.0097
98. TTGGTTTATC  1 ± 0.015
99. TTGTAATTAG  1 ± 0.039
100. TTGATCAGTG  1.01 ± 0.015
101. TTGATCGGGG  1.01 ± 0.028
102. TTGATGAGTG  1.01 ± 0.033
103. TTGCAAGTTG  1.01 ± 0.021
104. TTGCATTTTT  1.01 ± 0.034
105. TTGCGGGGTG  1.01 ± 0.045
106. TTGCGTACGG  1.01 ± 0.053
107. TTGCTATGAA  1.01 ± 0.054
108. TTGGAAAATA  1.009 ± 0.0042
109. TTGGAAAGTT  1.01 ± 0.028
110. TTGGATGGTT  1.01 ± 0.03
111. TTGGCGGAGG  1.007 ± 0.0058
112. TTGGGGAGGT  1.01 ± 0.037
113. TTGGGGCTGG  1.01 ± 0.013
114. TTGGGGGCCC  1.01 ± 0.033
115. TTGGGGGGCT  1.01 ± 0.09
116. TTGGGGGTTC  1.01 ± 0.05
117. TTGGGGTATC  1.01 ± 0.02
118. TTGGTGGGTG  1.01 ± 0.045
119. TTGGTTAAGT  1.01 ± 0.046
120. TTGGTTATAG  1.01 ± 0.011
121. TTGCGTGATG  1.02 ± 0.029
122. TTGCTTCGTT  1.02 ± 0.029
123. TTGGAACGAT  1.02 ± 0.07
124. TTGGACTAGG  1.02 ± 0.024
125. TTGGAGTTGT  1.02 ± 0.098
126. TTGGCGGGGC  1.02 ± 0.012
127. TTGGGACGAC  1.022 ± 0.0084
128. TTGGGGGCAC  1.024 ± 0.0069
129. TTGGGGGGAT  1.02 ± 0.053
130. TTGGGGGGG  1.02 ± 0.035
131. TTGGGGTCTT  1.02 ± 0.043
132. TTGGGTGCAG  1.016 ± 0.0075
133. TTGGTAGCGG  1.02 ± 0.034
134. TTGGTGCAGC  1.025 ± 0.0075
135. TTGGTGTCGC  1.016 ± 0.0034
136. TTGGTTGCGG  1.02 ± 0.024
137. TTGCAGGTGG  1.03 ± 0.011
138. TTGCCTTCTT  1.03 ± 0.033
139. TTGCTCTCTG  1.03 ± 0.031
140. TTGGAAATGG  1.03 ± 0.045
141. TTGGAATGT  1.029 ± 0.0083
142. TTGGAGGGCG  1.03 ± 0.017
143. TTGGAGTGGT  1.03 ± 0.013
144. TTGGCACGGG  1.03 ± 0.022
145. TTGGGACTTC  1.03 ± 0.012
146. TTGGGCGGAA  1.03 ± 0.071
147. TTGGGGCAAC  1.03 ± 0.047
148. TTGGGGGAGT  1.03 ± 0.022
149. TTGGGTCTCC  1.03 ± 0.027
150. TTGGGTGCCG  1.03 ± 0.048
151. TTGGTTTTAA  1.03 ± 0.014
152. TTGATAGTAA  1.04 ± 0.09
153. TTGCACCCGT  1.04 ± 0.053
154. TTGCCTAACT  1.04 ± 0.028
155. TTGCGGGATG  1.04 ± 0.051
156. TTGCTACGGA  1.04 ± 0.013
157. TTGCTGGCGC  1.036 ± 0.0055
158. TTGGCGTTTT  1.04 ± 0.026
159. TTGGGGAAAA  1.04 ± 0.054
160. TTGCAAGTCA  1.05 ± 0.018
161. TTGCCGGTTT  1.05 ± 0.021
162. TTGCGACCTG  1.05 ± 0.04
163. TTGGAAAAAT  1.05 ± 0.071
164. TTGGAAAGTG  1.05 ± 0.13
165. TTGGCACAAT  1.05 ± 0.026
166. TTGGCTTAGG  1.05 ± 0.096
167. TTGGGCAACA  1.05 ± 0.079
168. TTGATAGCCT  1.06 ± 0.059
169. TTGCGTAAGG  1.06 ± 0.056
170. TTGGCAGGGG  1.06 ± 0.047
171. TTGGGCAACG  1.06 ± 0.022
172. TTGGGCGATT  1.06 ± 0.045
173. TTGGTGCCTT  1.07 ± 0.033
174. TTGTACGTGG  1.07 ± 0.023
175. TTGGCTGGCT  1.08 ± 0.071
176. TTGGAGGAAA  1.09 ± 0.13
177. TTGATCCGGG  1.1 ± 0.055
178. TTGCCGGGGT  1.1 ± 0.16
179. TTGCTGCAAA  1.1 ± 0.12
180. TTGATGGGAC  1.12 ± 0.021
181. TTGGGTTGCT  1.12 ± 0.21
182. TTGTAGCTTT  1.12 ± 0.089
183. TTGGAAGGGG  1.13 ± 0.24
184. TTGGCTGTAG  1.13 ± 0.13
185. TTGGTAAGAC  1.14 ± 0.12
186. TTGGTCGGGA  1.15 ± 0.2
187. TTGCCGCTGT  1.18 ± 0.22
188. TTGCTAATGC  1.18 ± 0.23
189. TTGGGAGGGC  1.18 ± 0.27
190. TTGGACGGAA  1.224 ± 0.0051
191. TTGCCGGGGG  1.24 ± 0.38
192. TTGGAGCATG  1.28 ± 0.049
193. TTGCGGGTTT  1.29 ± 0.38
194. TTGGATCCGC  1.32 ± 0.45
195. TTGGGGCTT  1.32 ± 0.41
196. TTGCACGTAA  1.66 ± 0.42
197. TTGGGCAATA  1.77 ± 0.35
198. TTGTACGCTA  1.82 ± 0.73
199. TTGGCCGCAC  2.67 ± 0.049
200. TTGGGAATAC  3.23 ± 0.53
